Biological target: the molecule itself
Assay: cryo-EM structure

B1: HCMV UL141 soluble ectodomain (residues 30-278) with C-terminal 8X His-Tag (domain or fragment)
chain: SFPFATADIAEKMWAENYETTSPAPVLVAEGEQVTIPCTVMTHSWPMVSIRARFCRSHDGSDELILDAVKGHRLMNGLQYRLPYATWNFSQLHLGQIFSLTFNVSTDTAGMYECVLRNYSHGLIMQRFVILTQLETLSRPDEPCCTPALGRYSLGDQIWSPTPWRLRNHDCGMYRGFQRNYFYIGRADAEDCWKPACPDEEPDRCWTVIQRYRLPGDCYRSQPHPPKFLPVTPAPPADIDTGMSPWATR
  stoichiometry N: 2

Reference: PMC11482907 (bioRxiv, 2024)
